Data on 15 molecules can be found in US20260258115A1 (MAPP BIOPHARMACEUTICAL, published 2026).

Assay [1] concerns the target T1, RSV F on RSV subtype A virus (RSV-A2) (Respiratory Syncytial Virus, subtype A, …, UniProt P03420 26-574). The experiment in a line: cell-based or functional assay.
Assay [2] addresses RSV F on RSV subtype B virus (mKate-RSV B 18537) (Respiratory Syncytial Virus, subtype B, …, UniProt P13843 26-574). The assay is described as follows: cell-based or functional assay.
The target of assay [3] is RSV fusion glycoprotein (RSV F) on RSV-A2 virus (respiratory syncytial virus, UniProt P03420 26-574). The experiment in a line: cell-based or functional assay.
Assay [4] has as its target RSV postfusion F (postF), F deltaFP (respiratory syncytial virus, UniProt P03420 26-513). The assay is described as follows: BLI, IgG on sensor, 100 nM antigen. (In general: In BLI a coated tip is dipped into the sample, and binding shifts an interference pattern.)
Assay [5] deals with RSV prefusion F (preF), DS-Cav1 (respiratory syncytial virus, UniProt P03420 26-513). The assay is described as follows: BLI, IgG on sensor.
Assay [6] has as its target T2, RSV prefusion F (preF), DS-Cav1 stabilized trimer, subtype A (Respiratory Syncytial Virus, subtype A, UniProt P03420 26-513). The experiment in a line: BLI, IgG on anti-human IgG sensors, 100 nM antigen, apparent KD.
Assay [7] has as its target T3, RSV postfusion F (postF), F ΔFP trimer, subtype A (Respiratory Syncytial Virus, subtype A, UniProt P03420 26-513). The assay is described as above.
The target in assay [8] is T1, RSV F on RSV subtype A virus (RSV-A2). The assay is described as follows: cell-based or functional assay. This is another data set of the same source.
Assay [9] deals with T2, RSV prefusion F (preF), DS-Cav1 …. The experiment in a line: BLI, apparent IgG KD (Table 9A).
Assay [10] has as its target T3, RSV postfusion F (postF), F ΔFP trimer, …. The experiment in a line: BLI, IgG (Table 9A).

B1: ADI-20998 (antibody, V domains shown)
VH: QVQLVQSGGGVVQPGRSLRLSCAASGFTLSTYGMHWVRQAPGKGLEWVAVIYYDESNKFYADSVQGRFTISRDDSKNTLFLQMNSLRAEDTAVYYCARESRPRGYSYSDFDSWGQGTLVTVSS
VL: QPGLTQPRSVSGSPGQSVTISCTGTSSDVGTFNYVSWYQQHPGKAPKLMIYDVNQRPSGVPDRFSGSKSGNTASLTISGLQAEDEADYYCCAYAGYYSFGGGTKLTVL
As to B1, in [1], the “Neutralization - RSV A2 IC50 (pM)” value was 74 pM and the “neut IC50 (ug/ml) subtype A (graham)” value came out at 0.03 µg/mL. Besides, the “neut IC50 (ug/ml) subtype B (graham)” value in assay [2] is greater than 25 µg/mL.

B2: ADI-41379 (antibody, V domains shown)
VH: QVQLVQSGAEVKKPGESLKISCKGSGYSFSSFWIGWVRQMPGKGLEWMGIIYPGDSDTRYSPSFKGQVTISADTSISTAYLQWSSLKASDTAMYYCAKSIVGSTGSFDPWGQGTLVTVSS
VL: DIQMTQSPSSLSASVGDRVTITCQASQDISNFLNWYQQKPGKAPKLLIYDASNLRTGVPSRFSGSGSGTEFTFTISSLQPEDIATYYCQQYHDLPPLTFGGGTKVDIK
notes: IgG1
For B2, the “Neutralization IC50 (RSV subtype A)” value in assay [3] is greater than 25 µg/mL. In assay [4], this molecule registered a Kd of 1.11 nM. For the same molecule, the binding result in assay [5] is listed as “no binding (tested: 100 nM antigen)”.

B3: ADI-41842 (antibody, V domains shown)
VH: QVQLVQSGAEVKKPGASVRVSCKASGYTFTHYDINWVRQAPGQGLEWMGWINPNSGDTDYAQKFQGRVTMTVDTSISTAYLDLRSLTSADAAVYYCARGGAYATNGYYIIWFDPWGQGTLVTVSS
VL: DIVVTQSPSSLSASVGDRVTITCRASQSISRYLNWFQKKPGKAPHLLIYAASILQSEVPSRFSGSGSGTDFTLTISSLQPEDFATYYCQQSYNSPYTFGPGTKVDIK
notes: also called Ab 942; Antibody Number 942
With B3, the values for the Kd in [6] and in assay [7] were 0.717 nM and 0.442 nM, respectively. Besides, in assay [8], the “Neutralization IC50 (RSV subtype A)” value was greater than 25 µg/mL.

B4: ADI-41818 (antibody, V domains shown)
VH: EVQLVESGGGLVQPGGSLRLSCAASGFTVNTNYMSWVRQAPGKGLEWVSIIYSSGSTSYADSVKGRFTISRDNSENTLYLQMHTLRAEDTAVYYCVRERTPFYYVSSGYWDSWGQGTLVTVSS
VL: EIVLTQSPGTLSLSPGERATLSCRASQSVDSSYLAWYQQKPGQAPRLLIFGASSRATGIPDRFSGSGSGTDFTLTISRLEPEDFAVYYCQQYGFSYTFGQGTKVEIK
In the case of B4, the Kd in [6] is 0.676 nM; in assay [7], 0.347 nM. Also, in [8], the “Neutralization IC50 (RSV subtype A)” value was greater than 25 µg/mL.

B5: ADI-20964 (antibody, V domains shown)
VH: QVQLVQSGAEVKKPGASVKVSCKASGYTFTHYGISWVRQAPGQGLEWMGWISAYNGNTNYAQKLQGRVTMTTDTSTSTAYMEVRSLRYDDTAVYYCARDVPVEAATSPEFWGQGTLVTVSS
VL: DIVMTQTPLSLPVTLGQPASISCRSSQSLVYSDGNTYLSWFQQRPGQSPRRLIYKVSNRDSGVPNRFSGSGSGTDFTLKISRVEAEDVGVYYCVQNTHWPAYTFGQGTKVEIK
Turning to B5, the Kd in assay [9] turned out to be 0.36 nM. For the same molecule, the binding result in assay [10] is “no binding”. In assay [1], the “Neutralization - RSV A2 IC50 (pM)” value was 162 pM and the “neut IC50 (ug/ml) subtype A (graham)” value was 0.06 µg/mL. Moreover, the “neut IC50 (ug/ml) subtype B (graham)” value in [2] came out at 0.14 µg/mL.

B6: ADI-41400 (antibody, V domains shown)
VH: EVQLLESGGGLIQPGGSLRLSCAASKFTFSDYEMNWVRQAPGKGLEWLSYISSSGGIMYYADSVKGRFTISRDNAKNSLYLQMNSLRAEDTAVYFCARAGRLLSGLDVWGHGTTVTVSS
VL: EIVLTQSPSTLSASVGDRVTITCRASQSISPWLAWYQQKPGKAPKLLIYRASSLETGVPPRFSGSGSGTEFTLTISSLQPDDFATYYCQHYNSYLYSFGQGTKVEIK
notes: IgG1; also called Ab 693
For B6, the “Neutralization IC50 (RSV subtype A)” value in assay [3] is greater than 25 µg/mL. The molecule further showed a Kd in assay [4] of 0.547 nM. The binding result in assay [5] is reported as “no binding (tested: 100 nM antigen)”.

B7: ADI-41420 (antibody, V domains shown)
VH: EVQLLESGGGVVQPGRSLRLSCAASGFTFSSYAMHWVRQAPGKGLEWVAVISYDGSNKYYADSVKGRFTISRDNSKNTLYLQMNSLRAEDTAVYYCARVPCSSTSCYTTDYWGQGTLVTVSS
VL: QPVLTQPPSVSGSPGQSVTISCTGTSSDVGSYNRVSWYQQPPGTAPKLMIYEVSNRPSGVPDRFSGSKSGNTASLTISGLQAEDEADYYCSSYTSSSPVFGGGTKVTVL
notes: IgG1
As to B7, the “Neutralization IC50 (RSV subtype A)” value in assay [3] is greater than 25 µg/mL. Moreover, the Kd in [4] turned out to be 110 nM. Besides, in assay [5], the binding result is “no binding (tested: 100 nM antigen)”.

B8: ADI-41814 (antibody, V domains shown)
VH: EVQLLESGPTLVKPTQTLTLTCTFSGFSLSTFGVGVGWIRQPPGKALECLALIYWDDDKRYSPSLKSRLTITRDTSKNQVVLTMTNMDPVDTATYYCAHRRSSTVTTGFFDYWGRGTLVTVSS
VL: QPVLTQPPSVSGAPGQRVTVSCTGNSSNIGAGHGAHWYQQLPGTAPKLLIYGSTDRPSGVPDRFFGSQSGTSASLVITELRAEDEADYYCQSFDSSLSIWVFGGGTKLTVL
notes: also called Ab 921; Antibody Number 921
Turning to B8, the Kd in assay [6] came to 3.39 nM; in assay [7], 0.915 nM. In assay [8], the “Neutralization IC50 (RSV subtype A)” value is greater than 25 µg/mL.

B9: ADI-41361 (antibody, V domains shown)
VH: QVQLQESGGGVVQPGRSLRLSCAASGFAFSDYAMDWVRQAPGKGLEWVAVISFDGSNKFYADSVKGRFTISRDNSENTLFLQMNSLRAEDTAVYYCVRDFVPCSGATCYLPPVYWGRGTLVTVSS
VL: EIVLTQSPATLSVSPGERATLSCRASQSVSSDLAWYQQKPGQAPRLLIYGASTRATGIPARFSGSGSGTEFTLTISRLQSEDFAVYFCQQYNNWPSWTFGQGTKVEIK
notes: IgG1; also called Ab 658
As to B9, the “Neutralization IC50 (RSV subtype A)” value in assay [3] was 2.54 µg/mL. The Kd in assay [4] stood at 0.383 nM. For the same molecule, in assay [5], the binding result is reported as “no binding (tested: 100 nM antigen)”.

B10: ADI-41841 (antibody, V domains shown)
VH: EVQLLESGGGLVKPGGSLRLSCAASGFSFSYYSMNWVRQTPGKGLEWVSSISDRSSYISYADSVKGRFTISRDNAKNSLYLQMNSLRAEDTAVYYCARDQYESYAFDIWGQGTTVTVSS
VL: DIQVTQSPSSLSASVGDRITITCQASQDVGNYLNWYQQKVGKAPKLLIHDASDLETGVPSRFSGSGSGTYFTFTISSLQPEDFATYYCQPYDNLRPVTFGQGTRLEIK
For B10, the Kd was 0.121 nM in assay [6] and 0.265 nM in assay [7]. Further, in assay [8], the “Neutralization IC50 (RSV subtype A)” value is 0.04 µg/mL.

B11: ADI-41406 (antibody, V domains shown)
VH: EVQLVESGGNLVQPGGSLRLSCAASGFTFSSYVMNWVRQAPGKGLEWVSGISGSGGTSYYADSVKGRFTISRDNSNNTLYLQMKSLRAEDTAVYYCAKDPRFQKWLIEGTNWFDSWGQGTLVTVSS
VL: DIQVTQSPSSLSASVGDRVTITCRASQDVSNYLAWFQQKPGTAPKSLIYAASILQSGVPSKFRGSGSGTDFSLTISSLQPEDFATYYCQQYRSFPPTFGGGTKVEIK
notes: IgG1; also called Ab 698
With B11, in assay [3], the “Neutralization IC50 (RSV subtype A)” value was greater than 25 µg/mL. This molecule gave a Kd in assay [4] of 0.571 nM. Further, the binding result in [5] was “no binding (tested: 100 nM antigen)”.

B12: ADI-20974 (antibody, V domains shown)
VH: EVQLVESGGGLVKPGGSLRLSCAASGFSFSSYQINWVRQAPGKGLEWVSSISGGSSYTDYADSIKGRFTISRDNAKKSAFLQMKSLRADDTAVYYCARALMATAGGLAFDIWGQGTMVTVSS
VL: QPVLTQPPSVSGAPGQRVTISCTGSGSNIGAGYDVHWYQQVPGTAPKLLILRNTNRPSGVPDRFSGSKSGTSASLAITGLQAEDEADYYCQSYDRSLSVVFGGGTKLTVL
As for B12, the Kd in assay [9] was determined as 0.29 nM. Besides, the binding result in assay [10] is “no binding”. In addition, in assay [1], the “Neutralization - RSV A2 IC50 (pM)” value was 75.4 pM and the “neut IC50 (ug/ml) subtype A (graham)” value came out at 0.003 µg/mL. The “neut IC50 (ug/ml) subtype B (graham)” value in assay [2] amounted to 0.09 µg/mL.

B13: ADI-41435 (antibody, V domains shown)
VH: EVQLLESGGGLVKPGGSLRLSCAASGFTFSSYSLNWVRQAPGKGLEWVSSISSSGTYIFYADSVKGRFTISRDNAKDSLFLQMNSLRAEDTAVYYCARARDMGNYDILTGYYRVDAFDIWGQGTMVTVSS
VL: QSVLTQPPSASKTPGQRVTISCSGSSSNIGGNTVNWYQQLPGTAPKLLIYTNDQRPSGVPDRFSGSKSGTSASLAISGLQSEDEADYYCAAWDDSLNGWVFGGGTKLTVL
notes: IgG1
Turning to B13, the “Neutralization IC50 (RSV subtype A)” value in [3] is greater than 25 µg/mL. This molecule also had a Kd in assay [4] of 3.47 nM. In addition, the binding result in assay [5] is “no binding (tested: 100 nM antigen)”.

B14: ADI-41350 (antibody, V domains shown)
VH: EVQLVESGAGLVQPGGSLRLSCAASGFTFSTYAVSWVRQAPGKGLEWVSAISGSGASTYFADSVKGRFTISRDNSKNTLYLQMNSLRAEDTAVYYCAKARLELRPYYYGMDVWGQGTTVTVSS
VL: QPVLTQPASVSGSPGQSITISCTGTSSDVGGYNFVSWYQQHPGKAPKLIIYEVSNRPSGVSNRFSGSKSGNTASLTISGLQAEDEADYYCSSSTLSTTYVFGTGTKVTVL
notes: IgG1
On to B14, for which, in [3], the “Neutralization IC50 (RSV subtype A)” value is greater than 25 µg/mL. This molecule also registered a Kd in assay [4] of 0.602 nM. Also, the binding result in assay [5] was “no binding (tested: 100 nM antigen)”.

B15: ADI-41817 (antibody, V domains shown)
VH: QVQLVQSGAEVKKPGESLKISCKGPGYSFTTYWIGWVRQMPGKGLEWMGIIYPGDSDTKYSPSFQGQVTITADKSIATAYLQWSRLKASDTAVYYCATVVTYADNIRWFDSWGQGTLVTVSS
VL: QSALTQPASVSGSPGQSITISCTGTSGDVGGYKFVSWYQHHPGKAPKLVIYDVANRPSGVSDRFSGSKSGTTASLTISGLQAEDEADYYCSSYTSSSTYVFGTGTKVTAL
Turning to B15, the values for the Kd in assay [6] and in assay [7] were 6.94 nM and 15.8 nM, respectively. Further, in assay [8], the “Neutralization IC50 (RSV subtype A)” value was greater than 25 µg/mL.
